One molecule from article PMC3697942 can be followed below.

For the data set, the target named is T1, HB5 (HOMEOBOX PROTEIN 5, class I HD-ZIP) (Arabidopsis thaliana, UniProt P46667 1-312).
T1 sequence: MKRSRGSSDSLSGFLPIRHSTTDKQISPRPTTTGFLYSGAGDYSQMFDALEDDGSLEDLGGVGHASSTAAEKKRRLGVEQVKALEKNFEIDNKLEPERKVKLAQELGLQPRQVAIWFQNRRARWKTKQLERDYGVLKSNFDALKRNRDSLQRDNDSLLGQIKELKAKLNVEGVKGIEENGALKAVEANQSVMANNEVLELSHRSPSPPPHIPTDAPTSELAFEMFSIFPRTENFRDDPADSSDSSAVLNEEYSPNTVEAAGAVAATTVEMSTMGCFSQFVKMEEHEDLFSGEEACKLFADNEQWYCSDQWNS
Put plainly: EMSA. Background: A gel shift assay detects complexes by their altered migration in electrophoresis.

B1: PF 36bp (dsDNA)
DNA 1: GGCCCGCCATTACAAGACATATGGGTCCCAATTCTCATCACGGGCC
DNA 2: GGCCCGTGATGAGAATTGGGACCCATATGTCTTGTAATGGCGGGCC
Turning to B1, the binding result is listed as “binds”.
